# From the Human Domainome abundance scans (Beltran et al. 2025)
# ± gives the uncertainty stated by the source.
# B1: SH3 and PX domain-containing protein 2B, residues 155 to 209; numbered along this chain, A1X283 (parent)
# chain: EQYVVVANYQKQESSEISLSVGQVVDIIEKNESGWWFVSTAEEQGWVPATCLEGQ
# Variants of: B1
# Test: abundance fitness (aPCA) (normalised: wild type 0, dead -1); higher = more abundant; growth selection in yeast, the domain comes from the species named
# Details: Homo sapiens
row,Variant,abundance fitness
1,V24A,-0.008 ± 0.072
2,V24T,-0.109 ± 0.089
3,V24N,0.001 ± 0.12
4,V24I,-0.026 ± 0.19
5,V24E,0.027 ± 0.087
6,V24R,-0.135 ± 0.071
7,V24C,-0.035 ± 0.13
8,V24W,-0.075 ± 0.099
9,V24Q,-0.215 ± 0.11
10,E43D,0.087 ± 0.25
11,E43L,-0.263 ± 0.076
12,E43P,-0.856 ± 0.2
13,E43T,-0.033 ± 0.12
14,E43Q,0.065 ± 0.21
15,E43H,-0.021 ± 0.15
16,E43F,-0.265 ± 0.14
17,E43W,-0.31 ± 0.15
18,E43K,-0.167 ± 0.26
19,E43G,0.041 ± 0.063
20,E29D,-0.104 ± 0.2
21,E29Q,0.05 ± 0.11
22,E29W,-0.097 ± 0.088
23,E29T,-0.037 ± 0.093
24,E29C,-0.205 ± 0.082

row,Variant,abundance fitness
1,E29V,-0.258 ± 0.073
2,E29M,-0.417 ± 0.12
3,E29P,-0.974 ± 0.26
4,V47E,-0.776 ± 0.14
5,V47C,0.001 ± 0.089
6,V47I,0.11 ± 0.21
7,V47L,-0.319 ± 0.076
8,V47W,-1.11 ± 0.18
9,V47D,-1.1 ± 0.22
10,V47A,-0.106 ± 0.083
11,V21C,-0.025 ± 0.1
12,V21K,0.092 ± 0.2
13,V21R,-0.005 ± 0.071
14,V21F,-0.286 ± 0.099
15,V21G,-0.453 ± 0.082
16,F37M,-0.069 ± 0.12
17,F37K,0.066 ± 0.14
18,F37T,-0.472 ± 0.15
19,F37I,-0.181 ± 0.15
20,F37D,-0.347 ± 0.15
21,F37S,-0.109 ± 0.072
22,E16M,-0.449 ± 0.093
23,E16F,-0.868 ± 0.17
24,E16A,-0.312 ± 0.079

row,Variant,abundance fitness
1,E16W,-0.55 ± 0.12
2,E16Q,-0.008 ± 0.15
3,E16G,0.057 ± 0.061
4,A7S,-0.052 ± 0.083
5,A7M,-0.15 ± 0.12
6,A7K,-0.024 ± 0.12
7,A7C,-0.25 ± 0.093
8,Q23W,-0.292 ± 0.14
9,Q23D,-0.034 ± 0.087
10,Q23P,-0.978 ± 0.2
11,I17Q,-0.672 ± 0.19
12,I17G,-0.863 ± 0.086
13,I17P,-0.769 ± 0.17
14,I17H,-0.715 ± 0.24
15,I17T,-0.114 ± 0.12
16,G45M,-0.632 ± 0.13
17,G45N,-0.95 ± 0.43
18,G45Q,-0.734 ± 0.15
19,G45D,-0.964 ± 0.18
20,G45T,-0.683 ± 0.12
21,G45S,-0.965 ± 0.11
22,G45P,-1.19 ± 0.26
23,K11A,-0.106 ± 0.081
24,K11Q,-0.132 ± 0.13

row,Variant,abundance fitness
1,K11E,-0.183 ± 0.11
2,K11M,-0.115 ± 0.18
3,E13R,-0.182 ± 0.081
4,E13M,-0.025 ± 0.12
5,E13S,-0.158 ± 0.078
6,E13A,-0.359 ± 0.1
7,Q44E,-0.143 ± 0.12
8,Q44P,-0.807 ± 0.22
9,Q44K,-0.106 ± 0.12
10,Q44H,-0.085 ± 0.18
11,Q44F,-0.207 ± 0.19
12,L52E,-1.1 ± 0.19
13,L52N,-1.05 ± 0.23
14,L52M,-0.168 ± 0.1
15,L52Q,-1.05 ± 0.26
16,L52H,-0.773 ± 0.43
17,Q2L,-0.189 ± 0.087
18,Q2I,-0.347 ± 0.29
19,Q2K,-0.062 ± 0.16
20,Q2P,-0.068 ± 0.12
21,Q2D,-0.378 ± 0.18
22,Q2H,-0.178 ± 0.35
23,Q2E,-0.328 ± 0.37
24,Q2C,-0.086 ± 0.14

row,Variant,abundance fitness
1,Q2A,-0.247 ± 0.11
2,Y3D,-0.162 ± 0.2
3,Y3K,-0.035 ± 0.15
4,Y3G,0.003 ± 0.074
5,Y3P,-0.585 ± 0.18
6,Y3W,-0.324 ± 0.12
7,Y3N,-0.268 ± 0.13
8,Y3R,-0.127 ± 0.067
9,Y3T,-0.06 ± 0.11
10,W35Q,0.04 ± 0.14
11,W35C,-0.062 ± 0.089
12,W35A,-0.172 ± 0.072
13,W35H,0.013 ± 0.12
14,W35S,-0.04 ± 0.066
15,I28C,-0.13 ± 0.2
16,I28L,-0.041 ± 0.11
17,I28N,-0.229 ± 0.17
18,I28P,-0.822 ± 0.19
19,I28H,-0.052 ± 0.23
20,I28M,-0.125 ± 0.12
21,I28T,-0.116 ± 0.11
22,I28A,-0.319 ± 0.073
23,Y9F,0.011 ± 0.12
24,Y9D,-0.491 ± 0.1

row,Variant,abundance fitness
1,Y9C,-0.648 ± 0.14
2,Y9Q,-0.744 ± 0.15
3,Y9A,-0.774 ± 0.12
4,Y9V,-0.249 ± 0.074
5,Y9S,-0.484 ± 0.091
6,Y9R,-0.21 ± 0.071
7,Y9G,-0.81 ± 0.083
8,K30R,-0.049 ± 0.077
9,K30P,-0.495 ± 0.15
10,K30V,-0.273 ± 0.076
11,K30W,-0.58 ± 0.16
12,K30G,-0.398 ± 0.08
13,K30L,-0.548 ± 0.16
14,G54K,-0.231 ± 0.19
15,G54A,0 ± 0.1
16,V25W,-0.983 ± 0.18
17,V25K,-0.902 ± 0.21
18,V25P,-0.825 ± 0.16
19,V5T,-0.309 ± 0.34
20,V5Q,-0.994 ± 0.24
21,V5C,-0.108 ± 0.12
22,V5I,-0.379 ± 0.14
23,N31H,-0.095 ± 0.13
24,N31Q,-0.188 ± 0.17

row,Variant,abundance fitness
1,N31C,0.035 ± 0.087
2,N31V,-0.158 ± 0.08
3,N31P,-0.194 ± 0.1
4,N31T,-0.154 ± 0.1
5,N31M,-0.009 ± 0.1
6,N31A,-0.114 ± 0.075
7,E32S,-0.07 ± 0.071
8,E32R,-0.108 ± 0.064
9,E32Q,0.001 ± 0.12
10,E32N,-0.078 ± 0.15
11,E32H,-0.139 ± 0.13
12,E32P,-0.084 ± 0.083
13,E32Y,-0.345 ± 0.15
14,E32C,-0.152 ± 0.11
15,V38F,-0.915 ± 0.18
16,V38Y,-0.921 ± 0.29
17,V38T,-0.875 ± 0.13
18,V38C,-0.298 ± 0.16
19,V38P,-1.14 ± 0.27
20,V38W,-1.02 ± 0.28
21,V4E,0.003 ± 0.099
22,V4S,0.083 ± 0.088
23,V4C,-0.01 ± 0.13
